Consider 13 molecules from paper PMC12013189, “Phospho-regulated tethering of focal adhesion kinase to vinculin links force transduction to focal adhesion signaling” (Cell Communication and Signaling : CCS, 2025).

Sequences and labels used below:
T1: FAT domain of FAK (hFAK904-1052 WT) (Homo sapiens, UniProt Q05397)
T1 construct: Expression plasmids for FAT (hFAK904-1052 WT and mutants H14, H23 and H14-23); 6xHis (TEV cleavable) (N, cleaved yes); made in house; host or cells: E. coli BL21(DE3)
T1 sequence (Q05397 904-1052): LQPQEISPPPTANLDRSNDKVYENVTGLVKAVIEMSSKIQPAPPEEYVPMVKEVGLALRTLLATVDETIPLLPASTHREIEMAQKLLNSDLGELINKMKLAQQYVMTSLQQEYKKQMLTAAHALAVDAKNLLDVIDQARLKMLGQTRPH

T2: FAT-H14 (hFAK904-1052 with I936A, H1025A, K1032A) (human, UniProt Q05397 904-1052, I936A | H1025A | K1032A)
T2 sequence: T1 sequence (Q05397 904-1052) with I33A, H122A, K129A

T3: FAT-H23 (hFAK904-1052 with K955A, R962A, I998A) (human, UniProt Q05397 904-1052, K955A | R962A | I998A)
T3 sequence: T1 sequence (Q05397 904-1052) with K52A, R59A, I95A

T4: FAT domain of Focal Adhesion Kinase, wild type (hFAK904-1052) (human, UniProt Q05397 904-1052)
T4 chain: T1 sequence (Q05397 904-1052)

T5: FAT-Y925E phospho-mimetic mutant (human, UniProt Q05397 904-1052, Y925E)
T5 sequence: T1 sequence (Q05397 904-1052) with Y22E

T6: FAT-Y925F phosphodeficient mutant (human, UniProt Q05397 904-1052, Y925F)
T6 sequence: T1 sequence (Q05397 904-1052) with Y22F

T7: paxillin LD2/4 peptide (LD2 and LD4 motifs separated by a designed linker) (FITC label (fluorescence anisotropy))
T7 chain: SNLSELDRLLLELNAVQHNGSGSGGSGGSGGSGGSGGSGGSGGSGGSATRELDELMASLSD

B1: paxillin LD2/4 peptide (LD2 and LD4 motifs separated by a designed linker) (peptide)
chain: T7 chain
modifications: also: FITC label, position not given here
B2: FAT domain of Focal Adhesion Kinase, wild type (hFAK904-1052) (domain or fragment, human, UniProt Q05397 904-1052, looked up)
chain: T1 sequence (Q05397 904-1052)
notes: focal adhesion kinase (FAK), human, FAT domain, residues 904-1052 (hFAK904-1052); also called FAT-WT; source: E. coli BL21(DE3), purified (His-Trap, TEV digest, Source 15Q, Ni-NTA flow-through, Superdex200); not shown: His6, N-terminal, cleaved
B3: FAT-H14 (hFAK904-1052 with I936A, H1025A, K1032A) (domain or fragment)
chain: T1 sequence (Q05397 904-1052) with I33A, H122A, K129A

Numbering of substitutions follows the chain as printed. Numbers in names are those of the source. Ends that are not written are not given here.

Assay [1] concerns the target T8, vinculin tail domain (Vin-T, hVinculin891-1066) (Homo sapiens, UniProt P18206).
T8 construct: Vin-FL (hVinculin1-1066) and Vin-T (hVinculin891-1066) were ordered from GenScript; 6xHis (TEV cleavable) (N, cleaved yes); made in house; host or cells: E. coli BL21(DE3)
Put plainly: Fluorescence anisotropy binding to vinculin tail domain. As to conditions: 25 nM FITC labelled peptide, pH7.5, 22 °C, one-site binding model, 4 measurements, read-out: Apparent KD for vinculin tail domain (Vin-T). The source says: (§1) Expression plasmids for FAT (hFAK904-1052 WT and mutants H14, H23 and H14-23), Vin-FL (hVinculin1-1066) and Vin-T (hVinculin891-1066) were ordered from GenScript in the pET28(+) vector, adding a TEV cleavable N-terminal 6xHis tag to the expressed proteins. Mutant FAT-H14 contains the mutations I936A, H1025A, K1032A; FAT-H23 contains the mutations K955A, R962A, I998A and FAT-14-23 contains the combined mutations I936A, K955A, R962A, I998A, H1025A, K1032A. All plasmids were introduced into E.coli strain BL21(DE3) for expression. Cells were grown in LB media, induced with 1 mM IPTG at an OD (600 nm) of 0.6 and grown over night at 20 °C. […]
(§2) Binding curves were determined in a total of 20 µl in black 384 well plates, by titrating protein concentrations (typically up to 50 µM) at a fixed concentration of 25 nM FITC labelled LD peptides (Apeptide Co. Ltd) in 20 mM Tris pH7.5, 150 mM NaCl, 1mM TCEP. Anisotropy measurements were preformed at 22 °C on a Spark® Multimode microplate reader (Tecan) with polarizers, at an excitation wavelength of 485 nm and an emission wavelength of 535 nm (20 nm bandwidth). KD values were extracted by fitting a one-site binding model using the GraphPad Prism software, using the equation: Y = Bmax*X/(KD + X), where Y is the measured anisotropy, X the protein concentration and Bmax the maximal anisotropy value at binding saturation.

The target in assay [2] is T1, FAT domain of FAK (hFAK904-1052 WT). The assay can be described thus: Fluorescence anisotropy binding of FITC LD peptides to FAT-WT.
From the text: Expression plasmids for FAT (hFAK904-1052 WT and mutants H14, H23 and H14-23), Vin-FL (hVinculin1-1066) and Vin-T (hVinculin891-1066) were ordered from GenScript in the pET28(+) vector, adding a TEV cleavable N-terminal 6xHis tag to the expressed proteins. Mutant FAT-H14 contains the mutations I936A, H1025A, K1032A; FAT-H23 contains the mutations K955A, R962A, I998A and FAT-14-23 contains the combined mutations I936A, K955A, R962A, I998A, H1025A, K1032A. All plasmids were introduced into E.coli strain BL21(DE3) for expression. Cells were grown in LB media, induced with 1 mM IPTG at an OD (600 nm) of 0.6 and grown over night at 20 °C. Cells were pelleted at 6000 rpm and resuspended in 20 mM Tris pH8, 200 mM NaCl, 5% Glycerol, 10 mM imidazole, 2mM TCEP, 1mM PMSF supplemented with cOmplete protein inhibitor cocktail (Roche). Cells were lysed by sonication and insoluble components removed by centrifugation at 40 K for 1 h at 4 °C. Soluble lysates were cleared through 0.45 μm filters and loaded onto His-Trap affinity columns (Cytiva), washed with step gradients up to 30 mM imidazole and eluted with a gradient up to 500 mM imidazole. Peak-fractions were digested over night with TEV protease (molar ratio ~ 1: 20) at 4 °C. Proteins were diluted to 50 mM NaCl and loaded onto a Source 15Q column, washed with 20 mM Tris pH8, 50 mM NaCl, 5% Glycerol, 1mM TCEP and eluted with a gradient up to 1 M NaCl. Peak fractions were mixed with 1 ml of Ni-NTA beads to remove TEV and uncleaved protein, adding 10 mM imidazole to prevent non-specific binding. The flow-through was concentrated, loaded onto a Superdex200 16/60 column and eluted in 20 mM Tris pH8, 200 mM NaCl, 5% Glycerol, 2mM TCEP. Peak fractions were concentrated, aliquots flash frozen in LN2 and stored at -80 °C.
as §2
In general terms: Polarisation of emitted light reports the rotation of a fluorescent probe.

For assay [3], the target named is T9, full-length vinculin (Vin-FL, hVinculin1-1066) (Homo sapiens, UniProt P18206).
T9 construct: Vin-FL (hVinculin1-1066) and Vin-T (hVinculin891-1066) were ordered from GenScript; 6xHis (TEV cleavable) (N, cleaved yes); made in house; host or cells: E. coli BL21(DE3)
Put plainly: Fluorescence anisotropy binding to full-length vinculin. As to conditions: 25 nM FITC labelled peptide, pH7.5, 22 °C, one-site binding model, 4 measurements, read-out: Apparent KD for full-length vinculin (Vin-FL).
From the text: as §1, §2

The target in another assay is paxillin LD2 peptide. Put plainly: fluorescence polarisation; fluorescence anisotropy; protein titrated (typically up to 50 µM) at 25 nM FITC labelled LD peptide; 20 mM Tris pH7.5, 150 mM NaCl, 1mM TCEP; 22 °C; one-site binding model; apparent KD.
Assay [4] concerns the target vinculin tail domain (hVinculin891-1066) (human) (UniProt P18206). The assay can be described thus: AUC; sedimentation velocity; Vin-T at 100 µM; 20 °C, 48,000 rpm; monomer to dimer.
The next assay deals with paxillin LD1 peptide. The assay can be described thus: fluorescence polarisation; fluorescence anisotropy; protein titrated (typically up to 50 µM) at 25 nM FITC labelled LD peptide; 20 mM Tris pH7.5, 150 mM NaCl, 1mM TCEP; 22 °C; one-site binding model; apparent KD.
For assay [5], the target named is T2, FAT-H14 (hFAK904-1052 with I936A, …). Put plainly: FP.
In assay [6] the target is B2. Put plainly: fluorescence polarisation; fluorescence anisotropy; protein titrated (typically up to 50 µM) at 25 nM FITC labelled LD peptide; 20 mM Tris pH7.5, 150 mM NaCl, 1mM TCEP; 22 °C; one-site binding model; apparent KD. As to conditions: both partners purified.
In assay [7] the target is T3, FAT-H23 (hFAK904-1052 with K955A, …). Put plainly: FP.
In assay [8] the target is T4, FAT domain of Focal Adhesion Kinase, …. Put plainly: FP.
Assay [9] concerns the target T5, FAT-Y925E phospho-mimetic mutant. Put plainly: FP.
Assay [10] deals with T6, FAT-Y925F phosphodeficient mutant. The assay can be described thus: FP.
The target of assay [11] is T7, paxillin LD2/4 peptide (LD2 and LD4 …). Put plainly: AUC; sedimentation velocity; FAT and Vin-T at 30 µM with 10 µM LD2/4 peptide; 20 mM Tris pH 7.5, 200 mM NaCl, 5% Glycerol, 1 mM TCEP; 20 °C, 58,000 rpm; absorbance at 280 nm. To be noted: both partners purified.

T8 sequence (P18206 891-1066 isoform P18206-2): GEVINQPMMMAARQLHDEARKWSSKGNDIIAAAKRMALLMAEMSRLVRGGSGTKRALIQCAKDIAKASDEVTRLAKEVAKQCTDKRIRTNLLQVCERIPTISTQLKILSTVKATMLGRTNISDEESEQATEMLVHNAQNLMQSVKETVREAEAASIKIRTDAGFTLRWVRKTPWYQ
T9 sequence (P18206 1-1066 isoform P18206-2): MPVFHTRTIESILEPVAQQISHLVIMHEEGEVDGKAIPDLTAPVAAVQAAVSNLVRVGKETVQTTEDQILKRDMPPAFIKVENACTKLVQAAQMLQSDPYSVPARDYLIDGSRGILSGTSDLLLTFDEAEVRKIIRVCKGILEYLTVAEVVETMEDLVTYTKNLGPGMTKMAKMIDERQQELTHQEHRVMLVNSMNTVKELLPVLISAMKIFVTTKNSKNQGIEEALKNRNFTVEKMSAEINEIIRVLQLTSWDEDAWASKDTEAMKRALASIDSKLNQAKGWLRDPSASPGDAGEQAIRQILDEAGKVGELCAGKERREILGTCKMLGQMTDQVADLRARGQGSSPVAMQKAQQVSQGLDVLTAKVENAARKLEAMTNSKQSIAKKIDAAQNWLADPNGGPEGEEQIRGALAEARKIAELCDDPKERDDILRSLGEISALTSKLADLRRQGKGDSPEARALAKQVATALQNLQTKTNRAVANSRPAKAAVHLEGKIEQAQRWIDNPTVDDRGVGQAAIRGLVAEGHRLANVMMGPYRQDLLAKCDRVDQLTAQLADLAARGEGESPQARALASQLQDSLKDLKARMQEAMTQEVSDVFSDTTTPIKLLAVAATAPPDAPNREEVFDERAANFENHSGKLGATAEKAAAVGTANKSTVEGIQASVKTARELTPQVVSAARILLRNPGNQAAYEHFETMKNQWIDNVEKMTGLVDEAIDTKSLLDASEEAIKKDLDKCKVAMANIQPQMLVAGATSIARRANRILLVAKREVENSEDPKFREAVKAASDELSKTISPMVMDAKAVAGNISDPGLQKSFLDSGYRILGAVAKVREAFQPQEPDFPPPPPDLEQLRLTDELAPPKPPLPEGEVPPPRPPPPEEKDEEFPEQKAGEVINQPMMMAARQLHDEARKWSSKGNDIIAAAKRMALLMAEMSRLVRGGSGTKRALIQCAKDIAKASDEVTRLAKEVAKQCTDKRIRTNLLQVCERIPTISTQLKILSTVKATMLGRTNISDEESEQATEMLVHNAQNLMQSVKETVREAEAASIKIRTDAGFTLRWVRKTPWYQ

Take MDDLDALLADLES [LD1]: in [1], the Kd came to 3100 ± 300 nM.
“SVESLLDELES [LD3, synthetic peptide corresponding to the paxillin LD3 motif, FITC labelled N-terminally for anisotropy]”: the “binding to FAT-WT, in words” value in assay [2] is “no significant affinity”.
For `CC(C)C[C@H](NC(=O)[C@H](CCC(=O)O)NC(=O)[C@H](CC(C)C)NC(=O)[C@H](CC(C)C)NC(=O)[C@H](CC(C)C)NC(=O)[C@H](CCCNC(=N)N)NC(=O)[C@H](CC(=O)O)NC(=O)[C@H](CC(C)C)NC(=O)[C@H](CCC(=O)O)NC(=O)[C@H](CO)NC(=O)[C@H](CC(C)C)NC(=O)[C@H](CC(N)=O)NC(=O)[C@@H](N)CO)C(=O)N[C@@H](CC(N)=O)C(=O)N[C@@H](C)C(=O)N[C@H](C(=O)N[C@@H](CCC(N)=O)C(=O)N[C@@H](Cc1c[nH]cn1)C(=O)N[C@@H](CC(N)=O)C(=O)O)C(C)C` [LD2], the figures for the Kd in [1] and in [3] were 1700 ± 300 nM and 1300 ± 300 nM, respectively.
In the case of SATRELDELMASLSD [LD4], in assay [2] (25 nM FITC labelled peptide, 20 mM Tris pH7.5, 150 mM NaCl, 1mM TCEP, 22 °C, one-site binding model, 4 measurements, read-out: Apparent KD for FAT-WT), the Kd is 2100 ± 400 nM.
“SQLDSMLGSLQSD [LD5, synthetic peptide corresponding to the paxillin LD5 motif, FITC labelled N-terminally for anisotropy]”: the “binding to FAT-WT, in words” value in [2] is “no significant affinity”.
Regarding “full-length vinculin (hVinculin1-1066) (from UniProt P18206-2 1-1066) (natural protein)”, the Kd in the assay with paxillin LD2 peptide was found to be 1300 nM.
For orientation: stoichiometry N means a count of units in the complex or per binding partner. In [4], “vinculin tail domain (hVinculin891-1066) (from UniProt P18206-2 891-1066) (domain or fragment)” yielded a percent of Vin-T in the ~ 2.5 S form at 100 µM of 20% and a stoichiometry N of 2. In the assay with paxillin LD2 peptide, the Kd turned out to be 1700 nM. Further, the Kd with paxillin LD1 peptide worked out at 3100 nM.
Consider ATRELDELMASLS (also: FITC label, position not given here) [paxillin LD4 peptide], for which the Kd is 3600 nM in [5] and roughly 2000 nM in [6].
Consider SNLSELDRLLLELNAVQHN (also: FITC label, position not given here) [paxillin LD2 peptide], for which the Kd in assay [7] was 3900 nM; in [5] it was 13300 nM; in assay [8], 1800 nM; in assay [9], 6000 nM; in [10], 6000 nM.
For B1, the Kd is 1800 nM in assay [7]; 5800 nM in assay [5]; 130 ± 10 nM in [6]; 1500 nM in [9]; 1400 nM in assay [10].
B2: in [11], the “stoichiometry N” value is 1 FAT per LD2/4 (2:2). The Kd with paxillin LD2 peptide was 2000 nM. In addition, the fold lower affinity than for LD2 and LD4 with paxillin LD1 peptide was 10 fold.
As for B3, the fold reduction of affinity against FAT-WT with paxillin LD2 peptide was found to be 7 fold.
As to MDDLDALLADLES (also: FITC label, position not given here) [paxillin LD1 peptide], the Kd in assay [5] is 31400 nM; in assay [8] it was 18300 nM; in [9] it was 24700 nM; in assay [10] it was 19300 nM.
